± gives the standard error. This sample holds only a part of the variants without activity.
B1: glmS ribozyme (parent)
chain: AUAAAAGCGCCAGAACUACAGAAAUGUAGUUGACGAGGAGGAGGUUUAUCGAAUUUUCGGCGGAUGCCUCCAAA

Key:
Conditions in all cases: with glucosamine-6-phosphate
glucosamine-6-phosphate [1] = variants of: B1; assay: self-cleavage kobs at 160 uM GlcN6P; higher = faster cleavage; RNA array
Summary of the method: (§1)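 A hybridised Cy3 probe tracked barcoded ribozyme variants, transcribed in situ by E. coli RNA polymerase on sequenced MiSeq chips, at 37 °C. The variants received 40 μM to 10 mM glucosamine-6-phosphate in HEPES/KCl/Mg(OAc)2 buffer. kobs came from decay fits and kcat and KM from weighted Michaelis–Menten fits.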

glucosamine-6-phosphate [2] = variants of: B1; assay: self-cleavage kobs at 640 uM GlcN6P; higher = faster cleavage; RNA array
Summary of the method: as §1

glucosamine-6-phosphate [3] = variants of: B1; assay: self-cleavage kobs at 10000 uM GlcN6P; higher = faster cleavage; RNA array
Summary of the method: as §1

glucosamine-6-phosphate [4] = variants of: B1; assay: self-cleavage kobs at 2500 uM GlcN6P; higher = faster cleavage; RNA array
Summary of the method: as §1

Variant | self-cleavage kobs at 160 uM GlcN6P (glucosamine-6-phosphate [1]) | self-cleavage kobs at 640 uM GlcN6P (glucosamine-6-phosphate [2]) | self-cleavage kobs at 10000 uM GlcN6P (glucosamine-6-phosphate [3]) | self-cleavage kobs at 2500 uM GlcN6P (glucosamine-6-phosphate [4])
A12G G38U U57C | < 1e-05 s⁻¹ | < 1e-05 s⁻¹ | < 1e-05 s⁻¹ | 
C10U G32C A36G A39U | < 1e-05 s⁻¹ | < 1e-05 s⁻¹ |  | < 1e-05 s⁻¹
C8A A48C C68G | < 1e-05 s⁻¹ | < 1e-05 s⁻¹ |  | 
G13C A15U G51U C67U C68G | 6.58e-05 ± 2.5e-05 s⁻¹ |  |  | 
C8U U47C A48C C67G | < 1e-05 s⁻¹ | < 1e-05 s⁻¹ |  | < 1e-05 s⁻¹
A39G C58U G63U | < 1e-05 s⁻¹ | < 1e-05 s⁻¹ |  | 
G62C U65G | < 1e-05 s⁻¹ | < 1e-05 s⁻¹ |  | 
A12G G13C G29A C50G | 0.00168 ± 0.00066 s⁻¹ |  |  | 4.52e-05 ± 1.8e-05 s⁻¹
U30G G32A G35A C67U | < 1e-05 s⁻¹ | < 1e-05 s⁻¹ |  | 
G13C A14U G32A | 0.000741 ± 0.00017 s⁻¹ |  |  | 0.00667 ± 0.0017 s⁻¹
A36C U45C | < 1e-05 s⁻¹ | < 1e-05 s⁻¹ |  | < 1e-05 s⁻¹
A6G G38A G43U A48U A52C U69G | < 1e-05 s⁻¹ |  |  | < 1e-05 s⁻¹
C16A U54A C67A | 4.32e-05 ± 1.9e-05 s⁻¹ | 6.57e-05 ± 2.8e-05 s⁻¹ |  | 0.000181 ± 4.8e-05 s⁻¹
C8U A42U A64C U69C | < 1e-05 s⁻¹ | < 1e-05 s⁻¹ |  | 
G29U G43C U47A G63A | < 1e-05 s⁻¹ | < 1e-05 s⁻¹ |  | < 1e-05 s⁻¹
C8G C58A C67A | < 1e-05 s⁻¹ | < 1e-05 s⁻¹ |  | < 1e-05 s⁻¹
A36G G38C A42U G62A C67U C68A U69G | < 1e-05 s⁻¹ |  |  | 
A36C G38C U56C | < 1e-05 s⁻¹ |  |  | < 1e-05 s⁻¹
G37C U47C A52U | < 1e-05 s⁻¹ |  |  | 
G7C U45G G59A | < 1e-05 s⁻¹ | < 1e-05 s⁻¹ | < 1e-05 s⁻¹ | < 1e-05 s⁻¹
C8U G32U C50G | 0.000945 ± 0.00017 s⁻¹ | 0.000695 ± 0.00016 s⁻¹ |  | 0.000269 ± 8.5e-05 s⁻¹
G13U G35C A64U | < 1e-05 s⁻¹ | < 1e-05 s⁻¹ |  | < 1e-05 s⁻¹
A6G G7U A14G A33C | < 1e-05 s⁻¹ |  |  | 
U30C G59U | < 1e-05 s⁻¹ | < 1e-05 s⁻¹ | < 1e-05 s⁻¹ | < 1e-05 s⁻¹
G35U A39U | < 1e-05 s⁻¹ | < 1e-05 s⁻¹ |  | < 1e-05 s⁻¹

Variant | self-cleavage kobs at 160 uM GlcN6P (glucosamine-6-phosphate [1]) | self-cleavage kobs at 640 uM GlcN6P (glucosamine-6-phosphate [2]) | self-cleavage kobs at 10000 uM GlcN6P (glucosamine-6-phosphate [3]) | self-cleavage kobs at 2500 uM GlcN6P (glucosamine-6-phosphate [4])
C8U G32A U45A U56C | < 1e-05 s⁻¹ | < 1e-05 s⁻¹ | < 1e-05 s⁻¹ | < 1e-05 s⁻¹
C11A A39C C70G | < 1e-05 s⁻¹ | < 1e-05 s⁻¹ |  | < 1e-05 s⁻¹
G13C C34A G35U | < 1e-05 s⁻¹ | < 1e-05 s⁻¹ |  | < 1e-05 s⁻¹
A14C G32C G35U U57A | < 1e-05 s⁻¹ | < 1e-05 s⁻¹ |  | 
C10A A48C U56C | < 1e-05 s⁻¹ | < 1e-05 s⁻¹ |  | 
G32U G43U | < 1e-05 s⁻¹ |  |  | < 1e-05 s⁻¹
G35U C71U | < 1e-05 s⁻¹ | < 1e-05 s⁻¹ | < 1e-05 s⁻¹ | < 1e-05 s⁻¹
A14C G40U G59U C61U | < 1e-05 s⁻¹ |  |  | 
A33C U56C | < 1e-05 s⁻¹ | < 1e-05 s⁻¹ | < 1e-05 s⁻¹ | < 1e-05 s⁻¹
U31A G35C A48G | < 1e-05 s⁻¹ | < 1e-05 s⁻¹ |  | 
A42G G62C | < 1e-05 s⁻¹ | < 1e-05 s⁻¹ | < 1e-05 s⁻¹ | < 1e-05 s⁻¹
C16U G37A G40C G43A | < 1e-05 s⁻¹ | < 1e-05 s⁻¹ | < 1e-05 s⁻¹ | < 1e-05 s⁻¹
A39C G44U U46C G60U G63C C68A C71A | < 1e-05 s⁻¹ | < 1e-05 s⁻¹ |  | < 1e-05 s⁻¹
A12C G40C C61G | < 1e-05 s⁻¹ | < 1e-05 s⁻¹ | < 1e-05 s⁻¹ | < 1e-05 s⁻¹
C11A A42C | < 1e-05 s⁻¹ | < 1e-05 s⁻¹ |  | < 1e-05 s⁻¹
U31A A33G C34U G59C | < 1e-05 s⁻¹ | < 1e-05 s⁻¹ |  | 
G7A G37U | < 1e-05 s⁻¹ | < 1e-05 s⁻¹ | < 1e-05 s⁻¹ | < 1e-05 s⁻¹
G38A A53C | < 1e-05 s⁻¹ |  |  | 
U30A U31C G60A C71A | < 1e-05 s⁻¹ |  |  | 
G44A U49A | < 1e-05 s⁻¹ | < 1e-05 s⁻¹ | < 1e-05 s⁻¹ | < 1e-05 s⁻¹
A39U A42G G60U | < 1e-05 s⁻¹ | < 1e-05 s⁻¹ |  | 
C16G G41U U54A | < 1e-05 s⁻¹ |  |  | 
A33U G35A | < 1e-05 s⁻¹ | < 1e-05 s⁻¹ |  | < 1e-05 s⁻¹
G7C A36G A39G C67U | < 1e-05 s⁻¹ | < 1e-05 s⁻¹ |  | < 1e-05 s⁻¹
G29C G32C G37U U45G | < 1e-05 s⁻¹ | < 1e-05 s⁻¹ |  | < 1e-05 s⁻¹
